# Test results reported in patent US10975123B2, “Mutant Akt-specific capture agents, compositions, and methods of using and making” (California Institute of Technology, priority 2014, dated 2021).
# Primed or numbered codes have the meaning given here. Where no end group is shown, it is not given here. [ ]: non-standard residue; d: D form. PEG5′ = PEG5 linker
# Columns and labels:
# [1] = target: T1, HEK-293T cells expressing GFP-tagged E17K PH Domain (Homo sapiens, UniProt P31749, E17K); test: Cell imaging, cells expressing E17K protein; format: cell-based; conditions: confocal imaging, 50 nM, compared with WT cells, in words
# T1 construct: transfected to express GFP-tagged E17K or GFP-tagged WT PH Domain proteins; expressed in transfected cells; host or cells: HEK-293T
# T1 sequence (P31749 5-108 E17K limits assumed): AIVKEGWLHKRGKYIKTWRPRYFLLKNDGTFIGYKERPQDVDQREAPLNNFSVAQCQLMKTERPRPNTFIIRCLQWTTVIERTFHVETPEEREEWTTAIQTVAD
# From the text: The yleaf ligand was then labeled with both a Tat cell-penetrating peptide^22 and a Cy5 dye (FIG. 2a). The combination of the GFP label on the protein and the Cy5 label on the dye permitted the use of multi-color fluorescence microscopy for interrogating any spatial registry between the two fluorescent labels, as well as tracking the efficiency of the protein expression in the cells. Live HEK-293T cells expressing these GFP-tagged proteins were exposed to varying concentrations of the modified yleaf anchor ligand 6 for one hour. The cells were then incubated in fresh media for one hour before being thoroughly washed in PBS to remove weakly and nonspecifically bound PCC and fixed for fluorescence microscopy measurements.
# However, the level of the PCC agent retained by the cells was substantially different (FIG. 4). […] Pearson's correlation coefficient was used to quantify the co-localization of the two different dyes^23 by calculating over four representative images for each of the WT or E17K mutant cells and averaging the results. […] The Cy5 fluorescence intensity on a per cell basis has also been calculated for the cells expressing the WT and E17K proteins, and this difference is again statistically significant (p=0.00018). […]
# full length Akt1E17K = full length Akt1E17K (Homo sapiens, UniProt P31749, E17K); test: Fluorescence polarization binding to full-length E17K Akt1; conditions: triligand 9, triplicate, in words
# full length Akt1E17K, sequence (P31749 whole entry E17K): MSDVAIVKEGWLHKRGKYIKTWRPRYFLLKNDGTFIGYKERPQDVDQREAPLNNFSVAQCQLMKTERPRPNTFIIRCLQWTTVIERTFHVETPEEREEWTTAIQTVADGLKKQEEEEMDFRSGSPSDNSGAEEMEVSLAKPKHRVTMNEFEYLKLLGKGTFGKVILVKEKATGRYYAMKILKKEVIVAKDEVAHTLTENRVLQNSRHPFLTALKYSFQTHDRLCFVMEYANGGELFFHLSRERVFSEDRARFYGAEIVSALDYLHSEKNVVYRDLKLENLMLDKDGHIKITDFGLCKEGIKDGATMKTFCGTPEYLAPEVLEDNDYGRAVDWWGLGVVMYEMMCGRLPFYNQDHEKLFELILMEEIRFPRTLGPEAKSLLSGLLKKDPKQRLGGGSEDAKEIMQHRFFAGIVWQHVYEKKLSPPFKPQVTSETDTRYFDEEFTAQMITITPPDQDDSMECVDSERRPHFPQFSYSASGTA
# Description: FIG. 2: Anchor ligand structure and characterization. (FIG. 2A) The peptide anchor ligand, yleaf (SEQ ID NO: 43), which was discovered using the epitope-targeting technique. The different sets of R groups indicate the modifications that were made to perform the various experiments described. (FIG. 2B) Point ELISA for specificity obtained by immobilizing biotinylated yleaf (SEQ ID NO: 43) anchor ligand 2 onto a Neutravidin plate, then incubating with a 6 His-tagged epitope (“6 His” disclosed as SEQ ID NO: 4) 3. […] (FIG. 2C) Binding curves of yleaf (SEQ ID NO: 43) anchor ligand 4 to the full-length WT or E17K mutant Akt1 proteins obtained in solution by fluorescence polarization. A saturation point for the WT ligand was not reached due to the prohibitively high protein concentration required. (FIG. 2D) Full binding curves of yleaf (SEQ ID NO: 43) anchor ligand 4 to the WT or E17K mutant epitopes. […] All assays were performed in triplicate and averaged. Error bars indicate standard deviation.
# FIG. 5: The PCC agent triligand development strategy, structure, and inhibition data. (FIG. 5A) The yleaf (SEQ ID NO: 43) anchor ligand with a C-terminal alkyne 2 was screened against an azide-terminated library in the presence of the full-length PH Domain to identify a biligand. The biligand 7 was then appended with an N-terminal azide and screened against an alkyne library to identify a triligand. […]
Substance,retention of Cy5-labeled ligand in cells expressing E17K PH Domain (Cy5 signal) [1],selectivity for E17K over WT full-length protein by fluorescence polarization (full length Akt1E17K)
"PEG5-TAT-Cy5: control construct with no anchor ligand peptide, used in cell imaging ([PEG5′]YGRKKRRQRR; not fully specified (C-terminus); numbers in words are those of the source; also: Cy5 dye attached, site not given here)",looks the same as the WT PH Domain images,
"triligand 9: form of the ivdae-yleaf-yksy triligand used in fluorescence polarization assays (peptide 1 [dI][dV][dD][dA][dE]; peptide 2 [dY][dL][dE][dA][dF]; peptide 3 [dY][dK][dS][dY]; also: three chains joined by triazole click linkages (Lys(N3) and Pra handles), places not settled)",,E17K mutant selectivity is retained
